Assay in all cases: Steady-state kinetics of 2-ketoacid decarboxylase (ADH/NADH coupled)
Holding throughout (format): biochemical
Details in all cases: other: pH 7.5, 21° C.

Substrate in data set [1]: CC(C)C(=O)C(=O)O
From the text:
(§1) FIG. 17: Depicts protein sequences of various 2-ketoacid decarboxylases (SEQ ID NOS:20-34). Protein Sequence 3FZN is SEQ ID NO: 20. Protein sequence 2VBI is SEQ ID NO: 21. Protein sequence 1ZPD is SEQ ID NO: 22. Protein sequence ZP_08570611 is SEQ ID NO: 23. Protein sequence YP_831380 is SEQ ID NO: 24. Protein sequence ZP_06547677 is SEQ ID NO: 25. Protein sequence 1OVM_P23234 is SEQ ID NO: 26. Protein sequence ZP_06418208 is SEQ ID NO: 27. Protein sequence ZP_07290467 is SEQ ID NO: 28. Protein sequence 2VBG is SEQ ID NO: 29. Protein sequence CAK95977 is SEQ ID NO: 30. Protein sequence ZP_07282849 is SEQ ID NO: 31. Protein sequence ZP_06846103 is SEQ ID NO: 32. Protein sequence ZP_04996569 is SEQ ID NO: 33. Protein sequence YP_381143 is SEQ ID NO: 34.
(§2) To evaluate if the integrative genomic mining approach enriches the mining for C8 activity, an additional set of previously characterized ketoacid decarboxylases diverse in sequence were experimentally characterized in an equivalent manner. […] The median C8 activity from the GEOs selected using the integrative genomic mining approach is 75-fold higher than the naively picked decarboxylases (Table 1, FIG. 4). This indicates the integrative genomic mining approach is effective in identifying functional enzymes that perform the desired reaction on C8.
(§3) For the native KIVD and KIVD_VLV mutant, 2 ml overnight cultures of XL1B cells were transformed with pQE9 containing N-terminal his-tagged KIVD enzymes and grown in Terrific Broth (BP biomedical, Cat#3046-042) with 50 μg/mL of carbenicillin. (Fisher scientific, Cat# BP2648-5) For the GEOs, 2 ml overnight cultures of BLR cells were transformed with pet29b+ plasmid containing N-terminal his-tagged GEOs, and grown in Terrific Broth with 50 μg/mL of kanamycin. (Fisher scientific, Cat# BP906-5) These cultures were diluted 1:1000 in 500 mL of Terrific Broth with 1 mM MgSO4, 1% glucose, and 50ug/mL of corresponding antibiotics, then grown at 37° C. for 24 hours. Cultures were pelleted down at 4700 rpm for 10 mins and resuspended in auto-induction media (LB broth, 1 mM MgSO4, 0.1 mM TPP, 1×NPS, and 1×5052) for induction at 18° C. for 34 hours. At the end of induction, cells were centrifuged (4700 rpm, 4° C., 20 minutes), supernatant was removed, and cells were resuspended in 40 mL lysis buffer (100 mM Hepes pH 7.5, 100 mM NaCl, 10% glycerol, 0.1 mM TPP, 1 mM MgSO4, 10 mM Imidazole, 1 mM TCEP) and 1 mM PMSF) and sonicated for 2 minutes. Lysed cells were centrifuged at 4700 rpm at 4° C. for 60 mins to remove cell debris. Supernatant was loaded on gravity flow column with 700 μl of cobalt slurry (Fisher scientific, CAT# PI-90091) washed with 10 ml of wash buffer (100 mM Hepes pH 7.5, 100 mM NaCl, 10% glycerol, 0.1 mM TPP, 1 mM MgSO4, 10 mM Imidazole, and 1 mM TCEP). Cobalt bead bed was washed with 15 ml of wash buffer 5 times and proteins were eluted with 1000 μl of elution buffer (100 mM Hepes pH 7.5, 100 mM NaCl, 10% glycerol, 0.1 mM TPP, 1 mM MgSO4, 200 mM Imidazole, and 1 mM TCEP). Protein samples were immediately buffer exchanged with spin concentrators (Satorius, CAT# VS0112) into storage buffer (100 mM Hepes pH 7.5, 100 mM NaCl, 10% glycerol, 0.1 mM TPP, 1 mM MgSO4, and 1 mM TCEP) and stored at 4° C. until kinetics characterization. Protein concentrations were determined using a Synergy H1 spectrophotometer (Biotek) by measuring absorbance at 280 nm using their calculated extinction coefficients with ExPASy ProtParam Tool.^33 All other buffers and salts were purchased from Fisher Scientific unless otherwise specified.
(§4) The kcat and KM values of selective KIVD mutants were measured for the substrates: C3, C5, isoC5, and C8. All substrates were dissolved in MilliQ H2O and pH was adjusted to 7.5 as necessary. Activity was measured at 0.005 mM to 10 mM substrates. The assay was performed in a 96-well half-area plate. […]

Substrate in data set [2]: CCCC(=O)C(=O)O
Excerpt: as §1, §2, §3, §4

Substrate in data set [3]: CCCCCCC(=O)C(=O)O
Excerpt: as §1, §2, §3, §4

Substrate in data set [4]: CC(=O)C(=O)O
Excerpt: as §1, §2, §3, §4

B1: 3FZN, ketoacid decarboxylase, SEQ ID NO: 20 (Pseudomonas putida) (protein)
chain: MASVHGTTYELLRRQGIDTVFGNPGSNELPFLKDFPEDFRYILALQEACVVGIADGYAQASRKPAFINLHSAAGTGNAMGALSNAWNSHSPLIVTAGQQTRAMIGVEALLTNVDAANLPRPLVKWSYEPASAAEVPHAMSRAIHMASMAPQGPVYLSVPYDDWDKDADPQSHHLFDRHVSSSVRLNDQDLDILVKALNSASNPAIVLGPDVDAANANADCVMLAERLKAPVWVAPSAPRCPFPTRHPCFRGLMPAGIAAISQLLEGHDVVLVIGAPVFRYHQYDPGQYLKPGTRLISVTCDPLEAARAPMGDAIVADIGAMASALANLVEESSRQLPTAAPEPAKVDQDAGRLHPETVFDTLNDMAPENAIYLNESTSTTAQMWQRLNMRNPGSYYFCAAGGLGFALPAAIGVQLAEPERQVIAVIGDGSANYSISALWTAAQYNIPTIFVIMNNGTYGALRWFAGVLEAENVPGLDVPGIDFRALAKGYGVQALKADNLEQLKGSLQEALSAKGPVLIEVSTVSPVKGSTENLYFQSGALE
Turning to B1, the Km (commonly the concentration of substrate that gives half-maximal velocity) came to 4.9 ± 0.3 mM in data set [1], 2.7 ± 0.2 mM in data set [2] and 3.8 ± 0.3 mM in data set [3]. Moreover, the catalytic constant (kcat) (in general, the number of substrate molecules converted per active site and unit of time at saturation) was 0.52 ± 0.02 s⁻¹ in data set [1], 4.7 ± 0.1 s⁻¹ in data set [2] and 1.3 ± 0.1 s⁻¹ in data set [3].

B2: 1ZPD, ketoacid decarboxylase, SEQ ID NO: 22 (Zymomonas mobilis subsp. mobilis ZM4 = ATCC 31821) (protein)
chain: MSYTVGTYLAERLVQIGLKHHFAVAGDYNLVLLDNLLLNKNMEQVYCCNELNCGFSAEGYARAKGAAAAVVTYSVGALSAFDAIGGAYAENLPVILISGAPNNNDHAAGHVLHHALGKTDYHYQLEMAKNITAAAEAIYTPEEAPAKIDHVIKTALREKKPVYLEIACNIASMPCAAPGPASALFNDEASDEASLNAAVDETLKFIANRDKVAVLVGSKLRAAGAEEAAVKFTDALGGAVATMAAAKSFFPEENALYIGTSWGEVSYPGVEKTMKEADAVIALAPVFNDYSTTGWTDIPDPKKLVLAEPRSVVVNGIRFPSVHLKDYLTRLAQKVSKKTGSLDFFKSLNAGELKKAAPADPSAPLVNAEIARQVEALLTPNTTVIAETGDSWFNAQRMKLPNGARVEYEMQWGHIGWSVPAAFGYAVGAPERRNILMVGDGSFQLTAQEVAQMVRLKLPVIIFLINNYGYTIEVMIHDGPYNNIKNWDYAGLMEVFNGNGGYDSGAAKGLKAKTGGELAEAIKVALANTDGPTLIECFIGREDCTEELVKWGKRVAAANSRKPVNKVVGSTENLYFQSGALE
Regarding B2, in data set [4], the Km amounted to 5.7 ± 0.3 mM, the catalytic constant (kcat) turned out to be 46.7 ± 1.4 s⁻¹ and the kcat/Km (usually the turnover number divided by the Michaelis constant) worked out at 8200 ± 545 M⁻¹ s⁻¹. For the same protein, in data set [2], the Km was determined as 7.1 ± 0.3 mM, the turnover number (kcat) amounted to 0.95 ± 0.02 s⁻¹ and the kcat/Km came to 140 ± 5.6 M⁻¹ s⁻¹. Further, in data set [3], the Michaelis-Menten constant (Km) amounted to 1.2 ± 0.1 mM, the kcat turned out to be 0.021 ± 0.001 s⁻¹ and the specificity constant (kcat/Km) turned out to be 19 ± 2 M⁻¹ s⁻¹.

The record behind these values is patent publication US10829756B2, “Discovery of enzymes from the alpha-keto acid decarboxylase family” (priority 2015, dated 2020).
